Experimental data from publication PMC6527350 (Journal of molecular biology, 2019).

Molecular target: the molecule itself
Test: FRET or BRET

B1: PCNA-WC2-AEDANS (human PCNA N107W-T185C-C27M-W28F-C62M-C81S-C148S-C135S-C162S, labelled with AEDANS at C185) (natural protein)
chain: MFEARLVQGSILKKVLEALKDLINEAMFDISSSGVNLQSMDSSHVSLVQLTLRSEGFDTYRMDRNLAMGVNLTSMSKILKSAGNEDIITLRAEDNADTLALVFEAPWQEKVSDYEMKLMDLDVEQLGIPEQEYSSVVKMPSGEFARISRDLSHIGDAVVISSAKDGVKFSASGELGNGNIKLSQCSNVDKEEEAVTIEMNEPVQLTFALRYLNFFTKATPLSSTVTLSMSADVPLVVEYKIADMGHLKYYLAPKIEDEEGS
modifications: AEDANS on the cysteine at 185 (T185C), labelled with IAEDANS
Does B1 bind?
Result: binds
